Source: paper PMC3690482 (Molecular and cellular endocrinology, 2013)

Biological target: MET (mouse (endogenous in NLT), UniProt P16056 25-1379)
Experiment: co-IP

B1: AXL (receptor, mouse (endogenous in NLT), UniProt Q00993 19-888, looked up)
chain: AHKDTQTEAGSPFVGNPGNITGARGLTGTLRCELQVQGEPPEVVWLRDGQILELADNTQTQVPLGEDWQDEWKVVSQLRISALQLSDAGEYQCMVHLEGRTFVSQPGFVGLEGLPYFLEEPEDKAVPANTPFNLSCQAQGPPEPVTLLWLQDAVPLAPVTGHSSQHSLQTPGLNKTSSFSCEAHNAKGVTTSRTATITVLPQRPHHLHVVSRQPTELEVAWTPGLSGIYPLTHCNLQAVLSDDGVGIWLGKSDPPEDPLTLQVSVPPHQLRLEKLLPHTPYHIRISCSSSQGPSPWTHWLPVETTEGVPLGPPENVSAMRNGSQVLVRWQEPRVPLQGTLLGYRLAYRGQDTPEVLMDIGLTREVTLELRGDRPVANLTVSVTAYTSAGDGPWSLPVPLEPWRPGQGQPLHHLVSEPPPRAFSWPWWYVLLGALVAAACVLILALFLVHRRKKETRYGEVFEPTVERGELVVRYRVRKSYSRRTTEATLNSLGISEELKEKLRDVMVDRHKVALGKTLGEGEFGAVMEGQLNQDDSILKVAVKTMKIAICTRSELEDFLSEAVCMKEFDHPNVMRLIGVCFQGSDREGFPEPVVILPFMKHGDLHSFLLYSRLGDQPVFLPTQMLVKFMADIASGMEYLSTKRFIHRDLAARNCMLNENMSVCVADFGLSKKIYNGDYYRQGRIAKMPVKWIAIESLADRVYTSKSDVWSFGVTMWEIATRGQTPYPGVENSEIYDYLRQGNRLKQPVDCLDGLYALMSRCWELNPRDRPSFAELREDLENTLKALPPAQEPDEILYVNMDEGGSHLEPRGAAGGADPPTQPDPKDSCSCLTAADVHSAGRYVLCPSTAPGPTLSADRGCPAPPGQEDGA
- AXL in the MET immunoprecipitate, fold of input lysate: 0.6 fold
